Measurements taken from article doi:10.1101/2020.02.21.959445.

T1: ME47/AA (designed (human Max/human E47), R12A;C29A)
T1 chain: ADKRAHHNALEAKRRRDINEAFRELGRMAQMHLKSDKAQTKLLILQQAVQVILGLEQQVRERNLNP

T2: MEF/LA (designed (human Max/human E47/FosW), four FosW heptad Leu to Ala (see sequence))
T2 chain: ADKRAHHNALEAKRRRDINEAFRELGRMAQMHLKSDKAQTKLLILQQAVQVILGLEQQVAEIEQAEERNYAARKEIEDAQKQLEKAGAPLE

T3: MEF (designed (human Max/human E47/FosW))
T3 chain: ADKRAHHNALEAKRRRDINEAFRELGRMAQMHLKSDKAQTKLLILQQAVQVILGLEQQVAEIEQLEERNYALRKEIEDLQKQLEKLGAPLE

T4: MEF+1 (designed (human Max/human E47/FosW))
T4 chain: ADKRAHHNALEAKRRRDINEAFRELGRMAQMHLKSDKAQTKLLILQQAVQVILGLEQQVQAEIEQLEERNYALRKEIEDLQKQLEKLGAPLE

T5: MEF-1 (designed (human Max/human E47/FosW))
T5 chain: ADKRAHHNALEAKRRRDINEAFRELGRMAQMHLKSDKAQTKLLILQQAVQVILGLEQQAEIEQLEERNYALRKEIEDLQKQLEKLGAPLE

B1: AT E-box (-7 AT E-box) (dsDNA)
DNA 1: GCGGCCGCTGCAGGAACCACGTGGTGGAATTCTTTACA
DNA 2: TGTAAAGAATTCCACCACGTGGTTCCTGCAGCGGCCGC
B2: E-box (-7 GC E-box) (dsDNA)
DNA 1: GCGGCCGCTGCAGGAGCCACGTGCGGGAATTCTTTACA
DNA 2: TGTAAAGAATTCCCGCACGTGGCTCCTGCAGCGGCCGC
B3: NS DNA (nonspecific; TCCAAG in place of CACGTG) (dsDNA)
DNA 1: TGCAGGAGTTCCAAGGCGAAGGTT
DNA 2: AACCTTCGCCTTGGAACTCCTGCA

Experiments:
Assay in all cases: EMSA
ME47/AA = biological target: T1, ME47/AA
MEF/LA = biological target: T2, MEF/LA
MEF = biological target: T3, MEF
MEF+1 = biological target: T4, MEF+1
MEF-1 = biological target: T5, MEF-1

Binder	Kd (ME47/AA) [nM]	Kd (MEF/LA) [nM]	Kd (MEF) [nM]	Kd (MEF+1) [nM]	Kd (MEF-1) [nM]
B1	28.5 ± 2.3	–	–	–	–
B2	27.7 ± 1.7	10.7 ± 1.5	7.8 ± 0.6	30 ± 4	59 ± 5
B3	87.5 ± 5.1	44.5 ± 6	96 ± 22	65 ± 7	111 ± 18
